According to article PMC11046469, “Leveraging a Phage-Encoded Noncanonical Amino Acid: A Novel Pathway to Potent and Selective Epigenetic Reader Protein Inhibitors” (ACS Central Science, 2024):
Where a SMILES comes first, the peptide text is derived from it. The star is where a group is joined. FITC = O=C1OC2(c3ccc(O)cc3Oc3cc(O)ccc32)c2ccc(NC(=S)*)cc21; Oxazole(5-CO) = O=C(c1cnco1)*; Ahx = NCCCCCC(=O)O

Tests used:
MV4-11 cells = assay type: cell-based
Excerpt: (§1) For peptides developed for intracellular targets, a common concern is their cellular permeability to engage the targets. For the ENL YEATS domain that is a nuclear protein, its inhibitors will also need to translocate to the nucleus to exert their inhibition activities. […] We attached FITC to tENL-S1o to afford FITC-tENL-S1o that could be fluorescently imaged. […] Although results from this pilot study were very encouraging, the conjugated FITC could have assisted the cellular penetration process. A more accurate assay was needed for the use of unmodified peptides. […] There are three components required to gauge the peptide inhibitory potency for ENL expressed in cells through NanoBRET assays: (1) an ENL YEATS-NanoLuc luciferase fusion protein, (2) a NanoLuc luciferase substrate, and (3) a fluorescent tracer that binds specifically and reversibly to the reader channel of ENL YEATS. […] The cellular potency of peptides can be determined through the decrease in BRET as test peptides engage the ENL YEATS domain and displace the tracer. […]
(§2) Fluorescence microscopy study with FITC-6AHX-tENL-S1o: […]
(§3) Cell proliferation assays were performed in 96-well tissue culture plates (Corning). […] Cell numbers were determined every 3–4 days using the Countess automated cell counter (Invitrogen). […]

MOLM-13 cells = assay type: cell-based
Excerpt: as §1, §2, §3

ENL YEATS (His-ENL) = molecular target: T1, ENL YEATS (His-ENL) (Homo sapiens, UniProt Q03111); assay: Fluorescence polarization binding of tracer to ENL YEATS
T1 construct: (aa 1−148) was cloned in pET19b; made in house; host or cells: E. coli BL21(DE3pLysS)
T1 sequence (Q03111 1-148): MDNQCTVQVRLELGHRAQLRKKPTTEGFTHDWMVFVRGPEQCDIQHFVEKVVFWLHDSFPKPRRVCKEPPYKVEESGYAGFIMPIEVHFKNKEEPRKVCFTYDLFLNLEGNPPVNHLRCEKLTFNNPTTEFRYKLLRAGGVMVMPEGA
Experimental: Meanwhile, we established a stable cell line for NanoLuc-ENL YEATS expression. The binding of SR-0813T to […] was also validated using a fluorescence polarization assay (Figure S16).
Fluorescence Polarization:
Tracer 1 (10 nM) and varying concentrations of His-ENL (14 nM to 7.2 µM) were mixed in a 200 µL of assay buffer (50 mM HEPES, 100 mM NaCl, 0.01% Tween20, pH: 7.4). The solutions were incubated in black 96-well plates and then measured fluorescence polarization in a microplate reader at Ex/Em = 530 nm/590 nm.
NanoBRET Assay to Validate ENL Inhibitors:
HEK293T/17 cells harboring pCDH-EF1-Nluc-ENL were cultivated in growth medium overnight at 37 °C and 5% CO2. […] Following a quick spin (100 rcf, 1 min), a plate reader equipped with the LUM 610 LP 450 module was used to measure the emissions at 450 nm (donor) […]
The final BRET ratio was calculated by dividing the acceptor emission (610 nm) by the donor emission (450 nm). The BRET ratio was calculated using the following equation: […]
MOLM-13 cells were incubated with test compound (tENL-S1f at a final concentration of 10 and 50 μM) and control (DMSO at a final concentration of 0.1%) for 24 hours. […] Quantitative real-time PCR (qRT-PCR) analyses were performed in triplicate using SYBR Select Master Mix (Applied Biosystems) […]
Gene expressions were calculated following normalization to B2M levels using the comparative C t (cycle threshold) method. […]

Kd (ENL YEATS (His-ENL)) [nM] | SMILES | cellular fluorescence (cell penetration) (MV4-11 cells) | cellular fluorescence (cell penetration) (MOLM-13 cells)
 | CC(C)[C@H](NC(=O)CCCCCNC(=S)Nc1ccc2c(c1)C(=O)OC21c2ccc(O)cc2Oc2cc(O)ccc21)C(=O)N[C@@H](Cc1ccc(O)cc1)C(=O)N[C@@H](CS)C(=O)N[C@@H](Cc1ccc(O)cc1)C(=O)N[C@@H](CCCCNC(=O)c1cnco1)C(N)=O [FITC-tENL-S1o] ({FITC-Ahx}-VYCYK(Oxazole(5-CO))-NH2) | strong fluorescence within the cells | strong fluorescence within the cells
1100 | O=C(CCC1=[N+]2C(=Cc3ccc(-c4ccc[nH]4)n3[B-]2(F)F)C=C1)NCCCC(=O)Nc1cccc(-c2cn3cc(C(=O)NC4CCC4)ccc3n2)c1 [SR-0813T] |  | 
